First the molecules themselves.
T1: granulocyte-colony stimulating factor receptor (G-CSFR), purified / soluble receptor used in the binding … (UniProt Q99062 25-627, limits assumed)
T1 construct: also called G-CSF receptor; soluble G-CSFR harvest
T1 sequence (looked up): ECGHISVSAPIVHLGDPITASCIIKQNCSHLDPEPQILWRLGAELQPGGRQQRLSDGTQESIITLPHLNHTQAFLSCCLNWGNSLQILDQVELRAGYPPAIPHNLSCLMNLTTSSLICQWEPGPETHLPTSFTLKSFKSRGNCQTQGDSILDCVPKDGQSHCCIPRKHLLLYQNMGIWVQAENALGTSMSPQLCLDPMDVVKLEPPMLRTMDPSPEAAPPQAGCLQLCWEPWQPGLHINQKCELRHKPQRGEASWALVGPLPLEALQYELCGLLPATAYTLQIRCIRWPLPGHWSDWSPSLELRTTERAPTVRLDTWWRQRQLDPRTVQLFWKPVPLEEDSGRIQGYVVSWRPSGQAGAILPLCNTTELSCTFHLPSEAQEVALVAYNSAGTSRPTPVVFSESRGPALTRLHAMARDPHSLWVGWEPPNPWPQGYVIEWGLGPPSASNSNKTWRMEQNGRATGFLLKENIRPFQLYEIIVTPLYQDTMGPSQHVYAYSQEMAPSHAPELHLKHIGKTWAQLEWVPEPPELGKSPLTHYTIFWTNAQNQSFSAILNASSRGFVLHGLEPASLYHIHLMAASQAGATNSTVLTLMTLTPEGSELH

B1: Example 64 lysine-linked dimer MLAERKAEERRWFNTHGRE / MLAERKAEERRWFNTHGREK (peptide)
peptide 1: MLAERKAEERRWFNTHGRE
peptide 2: MLAERKAEERRWFNTHGREK-NH2
modifications: also: chain 1 C-terminus joined to the C-terminal Lys of chain 2 (branch link drawn)
notes: also called Ex. No. 64
B2: Example 53 peptide LLDICELKLQECARRCN (AF15846), oxidation state as tested not stated (peptide)
peptide: H-LLDICELKLQECARRCN-OH
modifications: also: oxidation state as tested not given here, active only after oxidation, as a dimer
notes: also called Ex. No. 53; Ex. 78 peptide
B3: Example 50 dimer of DLWYLESKLEECARRANG (peptide)
peptide: H-DLWYLESKLEECARRANG-NH2
modifications: also: disulfide at 12, other end not in the chain
notes: T0034 draws this dimer as [H]-...-[NH2]; also called Ex. No. 50

Where no end group is shown, it is not given here. The star is where a group is joined. Biotin = O=C1N[C@H]2[C@H](CS[C@H]2CCCCC(=O)*)N1 Some results are limits rather than exact numbers.

The target in the first test is T1, granulocyte-colony stimulating factor …. The experiment in a line: SPA competition with 125I-G-CSF on G-CSFR-coated beads; hybrid grade, at or near the cutoff. The protocol:
(§1) Streptavidin-coated scintillation proximity assay (SPA) beads (Amersham) were mixed with biotinylated anti-receptor immobilizing antibody (Ab179) followed by incubation with soluble G-CSFR harvest. Receptor-coated SPA beads were washed twice in PBS/0.1% BSA and distributed to wells of a white polystyrene 96-well microtiter plate (Packard). Serial dilutions of peptide or peptide mimetic were mixed with a constant amount of ¹²⁵I labeled G-CSF (10⁵ cpm; 1290 Ci/mmol) in PBS/0.1% BSA, added to wells containing receptor-coated SPA beads, and incubated overnight at 4° C. The binding of radiolabeled G-CSF to the receptor-coated SPA bead brings the isotope in close proximity to the scintillant, which allows the emitted radiation to stimulate the scintillant to emit light. […] The amount of ¹²⁵I labeled G-CSF that was bound at equilibrium was measured by counting the plate in a TopCount (Wallac) microtiter plate luminometer. The assay is conducted over a range of peptide concentrations and the results are graphed such that the y-axis represents the amount of bound ¹²⁵I labeled G-CSF and the x-axis represents the concentration of peptide or peptide mimetic. One can determine the concentration at which the peptide or peptide mimetic will reduce by 50% (IC₅₀) the amount of ¹²⁵I labeled G-CSF bound to immobilized G-CSFR. The dissociation constant (Kd) for the peptide should be similar to the measured IC₅₀ using the assay conditions described above.
In general, IC50 refers to the concentration needed to halve the response being measured. A higher IC50 goes with weaker potency in that assay. On to B1, for which the half-maximal inhibitory concentration (IC50) is around 200 µM. For the molecule LAHCLLRLEECAAG (also called Ex. No. 48) [Example 48 peptide LAHCLLRLEECAAG], the IC50 is around 200 µM. The same measure, in the same setting: to CESRLVECSRM (also called Ex. No. 47) [Example 47 peptide CESRLVECSRM] belongs around 200 µM; to ALLMCESKLAECARAR (also called Ex. No. 49) [Example 49 peptide ALLMCESKLAECARAR], around 200 µM.

For another test the target is unchanged. The experiment in a line: specific binding to G-CSFR (total minus non-specific binding with excess unlabeled ligand).
CFWSDWGQTC (also called Ex. No. 11) [Example 11 peptide CFWSDWGQTC]: the binding result is “no binding”.

As for CETLCGACFC (also called Ex. No. 15) [Example 15 peptide CETLCGACFC], the binding result is listed as “no binding”.

With CTWTDLESVY (also called Ex. No. 10) [Example 10 peptide CTWTDLESVY], the binding result was “no binding”.

With CHANPVWGEC (also called Ex. No. 9) [Example 9 peptide CHANPVWGEC], the binding result is recorded as “no binding”. Same read-out and setting: to CQRAGYMLAC (also called Ex. No. 8) [Example 8 peptide CQRAGYMLAC] belongs “no binding”.

A further test has the same target. As to the kind of experiment: SPA competition with 125I-G-CSF on G-CSFR-coated beads; grade defined in paragraph 137. Here is the method:
as §1
Biotin-KLLDICELKLQEAARRCN (cysteine pairing not given here, also called Ex. No. 60) [Example 60 peptide Biotin-KLLDICELKLQEAARRCN] had an IC50 of at most 200 µM.

The molecule LGIEGRTGGGLLDICELKLQECARRCN (also called Ex. No. 56) [Example 56 peptide LGIEGRTGGGLLDICELKLQECARRCN] showed an IC50 of at most 0.5 µM. Still for that read-out and setting: to B2 belongs at most 0.5 µM; to H-LLDICELKLQEAARRCN-OH (not fully specified (bridges); cysteine pairing not given here, also called Ex. No. 58) [Example 58 peptide LLDICELKLQEAARRCN], at most 200 µM; to LLDICELKLQECARRAN (not fully specified (bridges); cysteine pairing not given here, also called Ex. No. 57) [Example 57 peptide LLDICELKLQECARRAN], at most 200 µM.

As to H-LLDIAELKLQECARRCN-OH (not fully specified (bridges); cysteine pairing not given here, also called Ex. No. 61) [Example 61 peptide LLDIAELKLQECARRCN], the IC50 was at most 200 µM. Same read-out and setting: to Biotin-LLDICELKLQECARRAN (cysteine pairing not given here, also called Ex. No. 59) [Example 59 peptide Biotin-LLDICELKLQECARRAN] belongs at most 200 µM; to GGGLLDICELKLQECARRCN (also called Ex. No. 54) [Example 54 peptide GGGLLDICELKLQECARRCN], at most 0.5 µM; to CGCHVSPVQIKALC (also called Ex. No. 71) [Example 71 peptide CGCHVSPVQIKALC], at most 200 µM. For the molecule YLELCQLRLEECARQFN (also called Ex. No. 70) [Example 70 peptide YLELCQLRLEECARQFN], the IC50 is at most 200 µM. For H-EQSNSGWVWVGGGGC-NH2 (also called Ex. No. 45) [Example 45 peptide NH2-EQSNSGWVWVGGGGC-CONH2 (monomer)], the IC50 is at most 200 µM.

Molecule H-EQSNSGWVWVGGGGC-NH2 (also: homodimer linked through the C-terminal Cys residues, also called Ex. No. 46) [Example 46 dimer of NH2-EQSNSGWVWVGGGGC-CONH2] showed a half-maximal inhibitory concentration (IC50) of at most 200 µM.

For the molecule GRTGGGLLDICELKLQECARRCN (also called Ex. No. 55) [Example 55 peptide GRTGGGLLDICELKLQECARRCN], the IC50 is at most 0.5 µM. The same measure, in the same setting: to Biotin-KLLDIAELKLQECARRCN (cysteine pairing not given here, also called Ex. No. 62) [Example 62 peptide Biotin-KLLDIAELKLQECARRCN] belongs at most 200 µM. On the same count and under the same terms, to H-DLWYLESKLEECARRCNG-NH2 (not fully specified (bridges); cysteine pairing not given here, also called Ex. No. 51) [Example 51 peptide DLWYLESKLEECARRCNG] belongs at most 200 µM. Still for that read-out and setting: the same measure for B3: at most 200 µM; for H-DLWYLESKLEEAARRCNG-NH2 (also: homodimer via interchain disulfide between the Cys residues, also called Ex. No. 52) [Example 52 dimer of DLWYLESKLEEAARRCNG]: at most 200 µM; for H-STAERLWFCG-NH2 (also: homodimer via interchain disulfide between the Cys residues, also called Ex. No. 37; Ex. 76) [Example 37 dimer of NH2-STAERLWFCG-CONH2]: at most 200 µM. Biotin-KGGGMLAERKAEERRWFNTHGRE (also called Ex. No. 63) [Example 63 peptide Biotin-KGGGMLAERKAEERRWFNTHGRE] had an IC50 of at most 200 µM. Turning to CSTGGGLTAERDAEKRRWLLTHGGE (also: homodimer linked through the N-terminal Cys residues, also called Ex. No. 67) [Example 67 dimer of CSTGGGLTAERDAEKRRWLLTHGGE], the IC50 is at most 200 µM. Still for that read-out and setting: to H-EQSNSGWVWV-NH2 (also called Ex. No. 35; Ex. 74) [Example 35 peptide NH2-EQSNSGWVWV-CONH2] belongs at most 200 µM.
